Assay [1] deals with T1, soluble human TNFR2 (human, UniProt P20333 23-257).
T1 construct: also called soluble TNFR2
T1 sequence (looked up): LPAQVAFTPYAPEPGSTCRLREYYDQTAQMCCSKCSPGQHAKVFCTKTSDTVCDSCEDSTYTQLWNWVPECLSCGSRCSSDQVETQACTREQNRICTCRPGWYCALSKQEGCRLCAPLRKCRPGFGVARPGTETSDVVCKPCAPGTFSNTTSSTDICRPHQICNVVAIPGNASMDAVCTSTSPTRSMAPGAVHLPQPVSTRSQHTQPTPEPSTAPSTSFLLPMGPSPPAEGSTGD
Description: competition ELISA (FIG. 1), plate-bound soluble human TNFR2, constant biotinylated TNFα as competitor. From the text:
(§1) Soluble human TNFR2 was coated on Nunc-Immuno™ plates. […] IC₅₀ values are reported in nM.

Assay [2] deals with T1, soluble human TNFR2. The assay can be described thus: competition ELISA: plate-bound soluble human TNFR2, competitor biotinylated TNFα; IC50 relative to unlabelled TNFα = 1.00. As for the experimental part:
(§2) Soluble human TNFR2 (Sino Biological, 10417-H08H) or cynomolgus TNFR2 (Sino Biological, 90102-C08H) was coated on Nunc-Immuno™ plates at 0.1 μg/ml, 0.5 ug/ml, 1 μg/ml, and 5 μg/ml. […] Plates were developed using TMB and stopped with 3 M HCl.
(In general: An ELISA detects its analyte on a solid surface through an enzyme-linked reagent.)

Assay [3] addresses T1, soluble human TNFR2. The assay can be described thus: competition ELISA: plate-bound soluble human TNFR2, competitor biotinylated TNFα, streptavidin-HRP, A450. As for the experimental part: as §2
For assay [4], the target named is T1, soluble human TNFR2. The description is as above. The method, then: as §2
The source holds these as a separate data set.

The target of assay [5] is T2, soluble cynomolgus TNFR2 (cynomolgus, UniProt A0A2K5VET2 132-366).
T2 sequence: T1 sequence (looked up) with S16G, S36P, P117Q, N164H, E210A, S216G, M223V
Description: competition ELISA: plate-bound soluble cynomolgus TNFR2, competitor biotinylated TNFα, streptavidin-HRP, A450. The method, then: as §2

Assay [6] addresses T2, soluble cynomolgus TNFR2. Description: competition ELISA: plate-bound soluble cynomolgus TNFR2, competitor biotinylated TNFα; IC50 relative to unlabelled TNFα = 1.00. The method, then:
as §2

For assay [7], the target named is T2, soluble cynomolgus TNFR2. Description: competition ELISA: plate-bound soluble cynomolgus TNFR2, competitor biotinylated TNFα, streptavidin-HRP, A450. As for the experimental part: as §2
This is another data set of the same source.

The target of assay [8] is T3, monomeric human TNFR2 extracellular domain (human, UniProt P20333 23-257).
T3 construct: extracellular domain; Analyte in the Octet experiments; also called human TNFR2 ECD
T3 sequence (looked up): T1 sequence (looked up)
The assay can be described thus: BLI (Octet Red 96), Human TNFR2 Kd (1-1).

For assay [9], the target named is T2, soluble cynomolgus TNFR2. The assay can be described thus: competition ELISA: plate-bound soluble cynomolgus TNFR2, competitor biotinylated TNFα; IC50 relative to unlabelled TNFα = 1.00. The method, then:
as §2
(§3) IC₅₀ values are reported in nM.
The source holds these as a separate data set.

In assay [10] the target is T3, monomeric human TNFR2 extracellular …. Description: BLI (Octet Red 96), antibody captured on Fc biosensor, monomeric TNFR2 ECD in solution, 1:1 model. The method, then: (§4) Analysis of binding to the human and cynomolgus TNFR2 ECD was performed using an Octet Red 96 Instrument™ (ForteBio). […] The experiments were performed using five steps: (1) baseline acquisition (60 s); (2) antibody loading on to anti-human or anti-mouse Fc biosensors (120 s); (3) second baseline acquisition (60 s); (4) association of interacting monomeric human or cynomolgus TNFR2 ECD protein for kₒₙ measurement (120 s); and (5) dissociation of interacting monomeric human or cynomolgus TNFR2 ECD for koff measurement (240-3600 s).
(§5) The interacting monomeric human or cynomolgus ECD was used at 5-6 concentrations of a 3-fold concentration series. The data were analyzed using Octet Data Analysis Software 9.0™ (ForteBio) and fit to the 1:1 binding model. The equilibrium dissociation constants (Kd) were calculated by the ratio of […].
Background: Biolayer interferometry detects binding as a change in optical thickness at a sensor tip.

Assay [11] addresses T4, monomeric cynomolgus TNFR2 extracellular domain (cynomolgus monkey, UniProt A0A2K5VET2 132-366).
T4 construct: extracellular domain; Analyte in the Octet experiments; also called cynomolgus TNFR2 ECD; Cyno TNFR2
T4 sequence: T1 sequence (looked up) with S16G, S36P, P117Q, N164H, E210A, S216G, M223V
The assay is described as above. The method, then:
as §4, §5

Assay [12] has as its target T1, soluble human TNFR2. The assay can be described thus: competition ELISA: plate-bound soluble human TNFR2, competitor biotinylated TNFα; IC50 relative to unlabelled TNFα = 1.00. As for the experimental part:
as §2, §3
This is another data set of the same source.

Assay [13] deals with T1, soluble human TNFR2. The assay can be described thus: competition ELISA, plate-bound soluble human TNFR2, biotinylated TNFα as competitor. As for the experimental part: as §2, §3
Assay [14] concerns the target T2, soluble cynomolgus TNFR2. Description: competition ELISA, plate-bound soluble cynomolgus TNFR2, biotinylated TNFα as competitor. The method, then:
as §2, §3

Assay [15] concerns the target T1, soluble human TNFR2. Description: competition ELISA (FIG. 2), plate-bound soluble human TNFR2, constant biotinylated TNFα as competitor.
Excerpt: as §1

Assay [16] concerns the target T1, soluble human TNFR2. Description: competition ELISA (FIG. 2), plate-bound soluble human TNFR2, constant biotinylated TNFα as competitor; unit from paragraph 202 (IC50 values are reported in nM).
Excerpt: as §1

Substitutions are numbered along the chain they refer to. Read-outs that look alike come from different tables or passages of the source.

B1: SBT-002 (antibody, V domains shown)
VH: QVTLKESGPGILQPSQTLSLTCSFSGFSLSTSGMGVGWIRQPSGKGLEWLAHIWWDDDKFYNPSLKSQLTISKDTSRNQVFLKLTSVVTADTATYYCARLTGTRYFDYWGQGTTLTVSS
VL: DVQMTQSPSSLSASLGGKVTITCKASQDINKFIAWYQHKPGKGPRLLIHYTSTLQPGIPSKFSGSGSGRDYSFSISNLEPEDIATYYCLQYGNLWTFGGGTKLEIT
notes: Parental mouse antibody; also called mouse SBT-002
A word on the IC50: it is the point on the concentration scale where inhibition reaches its midpoint. A higher IC50 goes with weaker potency in that assay. One may read the Kd as the constant that tells how readily two partners part at equilibrium. A high value points to lower affinity. With B1, the IC50 in the assay with soluble human TNFR2 [1] was found to be 5.12 nM; with soluble human TNFR2 [3], 5.77 nM; in the assay with soluble human TNFR2 [4] it was 12.1 nM; with soluble cynomolgus TNFR2 [5] it was 19.6 nM; with soluble cynomolgus TNFR2 [7], 8 nM; with soluble human TNFR2 [15], 5.08 nM. The “Relative IC50” value amounted to 2.33 nM in the assay with soluble human TNFR2 [2], 2.13 nM with soluble cynomolgus TNFR2 [6], 2.04 nM with soluble cynomolgus TNFR2 [9] and 2.17 nM in the assay with soluble human TNFR2 [12]. For the same molecule, the Kd in assay [8] is 1.3 nM; in [10] it was 1.3 nM; in assay [11], 0.44 nM. The “Average Relative IC50” value with soluble human TNFR2 [13] turned out to be 2.19 nM; in the assay with soluble cynomolgus TNFR2 [14], 1.98.

B2: SBT-004 (antibody, V domains shown)
VH: EVQLQQSGPEVGRPGSSVKISCKASGYTFTDYIMHWVKQSPGQGLEWIGWVDPEYGSTDYAEKFKKKATLTADTSSNTAYIQLSSLTSEDTATYFCARDDGSYSPFDYWGQGVMVTVSS
VL: DIQMTQSPPSLSASLGDKVTITCQASQNINKYIAWYQQKPGKAPRLLIRYTSTLESGTPSRFSGSGSGRDYSFSISNVESEDIASYYCLQYVNLLTFGAGTKLEIK
notes: Parental rat antibody; also called rat SBT-004
Consider B2, for which the IC50 in the assay with soluble human TNFR2 [1] was determined as 7.88 nM; in the assay with soluble human TNFR2 [16], 6.59 nM. In addition, the Kd in [8] turned out to be 1.1 nM; in [10], 1.8 nM.

(Values after US20190202925A1 (OPI VI IP HOLDCO, published 2019).)
